Results published in patent US20220315655A1 (NOVIMMUNE, published 2022).

T1: recombinant mouse CD47 soluble protein (mouse, UniProt Q61735 19-140, limits assumed)
T1 sequence (looked up): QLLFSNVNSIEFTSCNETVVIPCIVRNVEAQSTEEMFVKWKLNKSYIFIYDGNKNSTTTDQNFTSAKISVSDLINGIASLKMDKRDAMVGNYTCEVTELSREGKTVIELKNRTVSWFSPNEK


Columns and labels:
[1] = target: T2, human PD-L1 on cells (hPD-L1-transfected CHO cells; IFNg-induced HT-1080 tumor cells) (human, UniProt Q9NZQ7 19-290); assay: cell-based competition: hPD-1-moFc binding to IFNg-induced PD-L1+CD47+ HT-1080 cells, CellInsight imaging
T2 construct: whole, on cells; The CHO transfectants are negative for human CD47; HT-1080 cells also carry CD47; also called PD-L1+CD47+ HT-1080

[2] = target: T1, recombinant mouse CD47 soluble protein; assay: statement in the xenograft example; assay not named
[3] = target: human CD47 on cells (Raji, Nalm-6, HT-1080 tumor cells; human red blood cells) (human, UniProt Q08722 19-323); assay: cell-based or functional assay
[4] = target: T3, recombinant human CD47 soluble protein (human, UniProt Q08722 19-139); assay: BLI (OctetRED96), His-tag CD47 on HIS1K biosensors, bsAb in solution, 1:1 global fit, 30 C
T3 construct: ELISA and BLI used different preparations; They are kept as one molecule because no limits are stated; also called His-tag human CD47

[5] = target: T4, recombinant human PD-L1 soluble protein (human, UniProt Q9NZQ7 19-238, biotinylated); assay: BLI (OctetRED96), biotinylated PD-L1 on streptavidin biosensors, bsAb in solution, 1:1 global fit, 30 C
T4 construct: Bought soluble protein; also called hPD-L1; B7-H1

[6] = target: T5, recombinant cynomolgus monkey PD-L1 soluble protein (cynomolgus monkey, UniProt G7PSE7 19-238, biotinylated); assay: as above
T5 construct: ELISA and BLI used proteins from different suppliers; They are kept as one molecule because no limits are stated; also called cyno PD-L1; cynomolgus PD-L1

[7] = target: T6, recombinant mouse PD-L1 soluble protein (mouse, UniProt Q9EP73 19-238, limits assumed, biotinylated); assay: as above
T6 construct: ELISA and BLI used proteins from different sources; They are kept as one molecule because no limits are stated

[8] = target: T6, recombinant mouse PD-L1 soluble protein; assay: statement in the xenograft example; assay not named
[9] = target: T7, recombinant cynomolgus monkey CD47 soluble protein (cynomolgus monkey, UniProt A0A2K5X523 19-139); assay: BLI (OctetRED96); set-up for cynomolgus CD47 not described
T7 construct: also called cyno CD47; cynomolgus CD47

Binder	IC50 [1] [pM]	binding result [2]	in vitro phagocytosis potency (ADCP of Nalm-6 cells), macrophage donor D#096 [3]	in vitro phagocytosis potency (ADCP of Nalm-6 cells), macrophage donor D#097 [3]	in vitro phagocytosis potency (ADCP of Nalm-6 cells), macrophage donor D#103 [3]	Kd [4] [pM]	Kd [5] [pM]	Kd [6] [pM]	Kd [7] [pM]	binding result [8]	Kd [9] [pM]
S79 anti-PD-L1 mAb (antibody, human IgG4 S228P, lambda, V domains shown, Bivalent monospecific anti-PD-L1 antibody with the common heavy chain and the S79 lambda light chain; also called S79 mAb; S79_Sc3_1G7_VLCL2 aPDL1 IGLV2-23) VH: not shown VL: QSALTQPASVSGSPGQSITISCTGTSSDVFRPPLVSWYQQHPGKAPKLMIYFASLRPSGVSNRFSGSKSGNTASLTISGLQAEDEADYYCSSWDHTGDGHVFGGGTKLTVLG	2.52	–	–	–	–	–	–	–	–	–	–
K33xS79 CD47xPD-L1 bispecific antibody (bispecific antibody, human IgG4 S228P, kappa, lambda, also called K33xS79 bsAb) heavy: not shown light 1: DIQMTQSPSSLSASVGDRVTITCRASQSISSYLNWYQQKPGKAPKLLIYAASSLQSGVPSRFSGSGSGTDFTLTISSLQPEDFATYYCQQFHKRSPQKFGQGTKVEIKRTVAAPSVFIFPPSDEQLKSGTASVVCLLNNFYPREAKVQWKVDNALQSGNSQESVTEQDSKDSTYSLSSTLTLSKADYEKHKVYACEVTHQGLSSPVTKSFNRGEC light 2: QSALTQPASVSGSPGQSITISCTGTSSDVFRPPLVSWYQQHPGKAPKLMIYFASLRPSGVSNRFSGSKSGNTASLTISGLQAEDEADYYCSSWDHTGDGHVFGGGTKLTVLGQPKAAPSVTLFPPSSEELQANKATLVCLISDFYPGAVTVAWKADSSPVKAGVETTTPSKQSNNKYAASSYLSLTPEQWKSHRSYSCQVTHEGSTVEKTVAPTECS	2.19	no binding	29.2	16	7.5	56000	500	1350	520	–	–
K106xS79 CD47xPD-L1 bispecific antibody (bispecific antibody, human IgG4 S228P, kappa, lambda, also called K106xS79 bsAb) heavy: not shown light 1: not shown light 2: QSALTQPASVSGSPGQSITISCTGTSSDVFRPPLVSWYQQHPGKAPKLMIYFASLRPSGVSNRFSGSKSGNTASLTISGLQAEDEADYYCSSWDHTGDGHVFGGGTKLTVLGQPKAAPSVTLFPPSSEELQANKATLVCLISDFYPGAVTVAWKADSSPVKAGVETTTPSKQSNNKYAASSYLSLTPEQWKSHRSYSCQVTHEGSTVEKTVAPTECS	3.51	no binding	99.2	94	23.5	99000	–	–	–	binds	–
K38xS79 CD47xPD-L1 bispecific antibody (bispecific antibody, human IgG4 S228P, kappa, lambda, also called K38xS79 bsAb; K38S79) heavy: not shown light 1: DIQMTQSPSSLSASVGDRVTITCRASQVIANWLNWYQQKPGKAPKLLIYAGSHLQSGVPSRFSGSGSGTDFTLTISSLQPEDFATYYCQQMHPRAPKTFGQGTKVEIKRTVAAPSVFIFPPSDEQLKSGTASVVCLLNNFYPREAKVQWKVDNALQSGNSQESVTEQDSKDSTYSLSSTLTLSKADYEKHKVYACEVTHQGLSSPVTKSFNRGEC light 2: QSALTQPASVSGSPGQSITISCTGTSSDVFRPPLVSWYQQHPGKAPKLMIYFASLRPSGVSNRFSGSKSGNTASLTISGLQAEDEADYYCSSWDHTGDGHVFGGGTKLTVLGQPKAAPSVTLFPPSSEELQANKATLVCLISDFYPGAVTVAWKADSSPVKAGVETTTPSKQSNNKYAASSYLSLTPEQWKSHRSYSCQVTHEGSTVEKTVAPTECS	0.83	no binding	5.6	5	3.2	13600	–	–	–	binds	16000
K38xS28 CD47xPD-L1 bispecific antibody (bispecific antibody, human IgG4 S228P, kappa, lambda, also called K38xS28 bsAb) heavy: not shown light 1: DIQMTQSPSSLSASVGDRVTITCRASQVIANWLNWYQQKPGKAPKLLIYAGSHLQSGVPSRFSGSGSGTDFTLTISSLQPEDFATYYCQQMHPRAPKTFGQGTKVEIKRTVAAPSVFIFPPSDEQLKSGTASVVCLLNNFYPREAKVQWKVDNALQSGNSQESVTEQDSKDSTYSLSSTLTLSKADYEKHKVYACEVTHQGLSSPVTKSFNRGEC light 2: not shown	–	no binding	–	–	–	–	–	–	–	no binding	–
